# Source: IntAct's records for PubMed 29892012
# B1: Angio-associated migratory cell protein (Homo sapiens), Q13685 (parent)
# chain: MESESESGAAADTPPLETLSFHGDEEIIEVVELDPGPPDPDDLAQEMEDVDFEEEEEEEGNEEGWVLEPQEGVVGSMEGPDDSEVTFALHSASVFCVSLDPKTNTLAVTGGEDDKAFVWRLSDGELLFECAGHKDSVTCAGFSHDSTLVATGDMSGLLKVWQVDTKEEVWSFEAGDLEWMEWHPRAPVLLAGTADGNTWMWKVPNGDCKTFQGPNCPATCGRVLPDGKRAVVGYEDGTIRIWDLKQGSPIHVLKGTEGHQGPLTCVAANQDGSLILTGSVDCQAKLVSATTGKVVGVFRPETVASQPSLGEGEESESNSVESLGFCSVMPLAAVGYLDGTLAIYDLATQTLRHQCQHQSGIVQLLWEAGTAVVYTCSLDGIVRLWDARTGRLLTDYRGHTAEILDFALSKDASLVVTTSGDHKAKVFCVQRPDR
# partner: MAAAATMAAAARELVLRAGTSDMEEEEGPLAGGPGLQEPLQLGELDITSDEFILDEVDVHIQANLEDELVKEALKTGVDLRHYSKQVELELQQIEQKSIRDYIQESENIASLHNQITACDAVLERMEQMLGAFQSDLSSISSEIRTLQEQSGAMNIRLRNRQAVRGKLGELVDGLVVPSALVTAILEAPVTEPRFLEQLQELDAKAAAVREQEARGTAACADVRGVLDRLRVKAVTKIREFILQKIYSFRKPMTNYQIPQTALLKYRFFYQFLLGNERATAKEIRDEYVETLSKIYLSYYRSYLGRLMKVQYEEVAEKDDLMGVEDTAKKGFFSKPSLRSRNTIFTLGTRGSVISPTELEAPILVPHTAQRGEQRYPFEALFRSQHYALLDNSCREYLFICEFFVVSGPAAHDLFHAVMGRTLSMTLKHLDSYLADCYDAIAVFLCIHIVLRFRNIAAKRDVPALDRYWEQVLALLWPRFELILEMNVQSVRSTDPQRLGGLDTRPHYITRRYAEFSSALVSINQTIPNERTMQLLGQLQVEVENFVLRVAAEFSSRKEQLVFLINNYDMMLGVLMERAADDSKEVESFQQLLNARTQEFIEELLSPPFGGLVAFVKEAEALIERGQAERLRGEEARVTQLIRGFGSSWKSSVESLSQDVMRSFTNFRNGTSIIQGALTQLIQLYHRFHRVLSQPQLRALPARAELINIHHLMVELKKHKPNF
# B2: Protein SSX5 (Homo sapiens), O60225 (parent)
# chain: MNGDDAFVRRPRVGSQIPEKMQKAFDDIAKYFSEKEWEKMKASEKIIYVYMKRKYEAMTKLGFKATLPPFMRNKRVADFQGNDFDNDPNRGNQVEHPQMTFGRLQGIFPKITPEKPAEEGNDSKGVPEASGPQNNGKQLRPSGKLNTSEKVNKTSGPKRGKHAWTHRVRERKQLVIYEEISDPQEDDE
# partner: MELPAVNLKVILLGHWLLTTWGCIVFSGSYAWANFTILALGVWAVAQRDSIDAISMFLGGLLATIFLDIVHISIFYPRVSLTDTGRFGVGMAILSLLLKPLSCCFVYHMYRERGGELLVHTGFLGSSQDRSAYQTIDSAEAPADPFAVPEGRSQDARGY
# B3: Ribosome production factor 1 (Homo sapiens), Q9H9Y2 (parent)
# chain: MAKAGDKSSSSGKKSLKRKAAAEELQEAAGAGDGATENGVQPPKAAAFPPGFSISEIKNKQRRHLMFTRWKQQQRKEKLAAKKKLKKEREALGDKAPPKPVPKTIDNQRVYDETTVDPNDEEVAYDEATDEFASYFNKQTSPKILITTSDRPHGRTVRLCEQLSTVIPNSHVYYRRGLALKKIIPQCIARDFTDLIVINEDRKTPNGLILSHLPNGPTAHFKMSSVRLRKEIKRRGKDPTEHIPEIILNNFTTRLGHSIGRMFASLFPHNPQFIGRQVATFHNQRDYIFFRFHRYIFRSEKKVGIQELGPRFTLKLRSLQKGTFDSKYGEYEWVHKPREMDTSRRKFHL
# partner: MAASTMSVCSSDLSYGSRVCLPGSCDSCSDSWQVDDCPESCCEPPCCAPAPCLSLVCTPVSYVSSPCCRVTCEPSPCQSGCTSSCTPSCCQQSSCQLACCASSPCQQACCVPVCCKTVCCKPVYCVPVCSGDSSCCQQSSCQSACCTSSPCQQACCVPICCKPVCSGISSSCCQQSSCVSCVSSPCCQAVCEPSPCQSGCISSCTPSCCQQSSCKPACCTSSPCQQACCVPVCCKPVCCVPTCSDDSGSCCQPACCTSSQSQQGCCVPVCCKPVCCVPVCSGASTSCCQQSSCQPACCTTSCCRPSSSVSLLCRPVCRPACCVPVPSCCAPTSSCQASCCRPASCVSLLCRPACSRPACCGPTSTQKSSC
# B4: Angio-associated migratory cell protein (Homo sapiens), Q13685 (parent)
# chain: B1 chain
# B5: Abl interactor 2 (Homo sapiens), Q9NYB9 (parent)
# chain: MAELQMLLEEEIPGGRRALFDSYTNLERVADYCENNYIQSADKQRALEETKAYTTQSLASVAYLINTLANNVLQMLDIQASQLRRMESSINHISQTVDIHKEKVARREIGILTTNKNTSRTHKIIAPANLERPVRYIRKPIDYTILDDIGHGVKWLLRFKVSTQNMKMGGLPRTTPPTQKPPSPPMSGKGTLGRHSPYRTLEPVRPPVVPNDYVPSPTRNMAPSQQSPVRTASVNQRNRTYSSSGSSGGSHPSSRSSSRENSGSGSVGVPIAVPTPSPPSVFPAPAGSAGTPPLPATSASAPAPLVPATVPSSTAPNAAAGGAPNLADGFTSPTPPVVSSTPPTGHPVQFYSMNRPASRHTPPTIGGSLPYRRPPSITSQTSLQNQMNGGPFYSQNPVSDTPPPPPPVEEPVFDESPPPPPPPEDYEEEEAAVVEYSDPYAEEDPPWAPRSYLEKVVAIYDYTKDKEDELSFQEGAIIYVIKKNDDGWYEGVMNGVTGLFPGNYVESIMHYSE
# partner: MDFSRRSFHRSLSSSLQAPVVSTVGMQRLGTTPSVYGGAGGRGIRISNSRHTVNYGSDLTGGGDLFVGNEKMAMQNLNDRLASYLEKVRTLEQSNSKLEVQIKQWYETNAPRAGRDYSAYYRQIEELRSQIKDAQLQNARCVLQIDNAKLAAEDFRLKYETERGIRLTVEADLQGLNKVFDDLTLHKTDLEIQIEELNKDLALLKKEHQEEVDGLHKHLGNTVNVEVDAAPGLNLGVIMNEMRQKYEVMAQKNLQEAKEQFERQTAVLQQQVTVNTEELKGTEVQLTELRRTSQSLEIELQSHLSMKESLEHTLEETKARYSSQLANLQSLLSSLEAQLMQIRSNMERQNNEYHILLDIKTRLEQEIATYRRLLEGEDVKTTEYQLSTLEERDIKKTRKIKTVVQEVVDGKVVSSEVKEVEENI
# Variants of: B1
# Details: with vps52_human VPS52, Q8N1B4
row,effect of a mutation on the interaction,Variant
1,with no effect,I343F

# Variants of: B2
# Details: with atrap_human AGTRAP
row,effect of a mutation on the interaction,Variant
1,disrupting interaction strength,K54R

# Variants of: B3
# Details: with kr107_human KRTAP10-7, P60409
row,effect of a mutation on the interaction,Variant
1,with no effect,P49T

# Variants of: B4
# Details: with bhe40_human BHLHE40, O14503
# bhe40_human BHLHE40, O14503, sequence (O14503 whole entry): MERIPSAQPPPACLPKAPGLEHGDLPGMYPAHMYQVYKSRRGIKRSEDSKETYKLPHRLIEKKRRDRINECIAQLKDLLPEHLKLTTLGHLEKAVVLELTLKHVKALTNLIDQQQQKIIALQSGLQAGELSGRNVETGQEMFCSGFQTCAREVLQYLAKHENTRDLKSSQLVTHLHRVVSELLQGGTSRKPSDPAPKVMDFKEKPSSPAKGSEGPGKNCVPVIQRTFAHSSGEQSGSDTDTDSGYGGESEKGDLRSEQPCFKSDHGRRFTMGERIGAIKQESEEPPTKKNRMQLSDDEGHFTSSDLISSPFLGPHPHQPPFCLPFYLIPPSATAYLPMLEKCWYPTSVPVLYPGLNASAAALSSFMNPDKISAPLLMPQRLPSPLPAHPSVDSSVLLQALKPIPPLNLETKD
row,effect of a mutation on the interaction,Variant
1,with no effect,I343F

# Variants of: B5
# Details: with KRT20, P35900
row,effect of a mutation on the interaction,Variant
1,with no effect,E202K

# Variants of: B5
# Details: with KRT20, P35900
# Remark: another data set of the same source
row,effect of a mutation on the interaction,Variant
1,with no effect,R373C
